Laboratory results taken from the Human Domainome abundance scans (Beltran et al. 2025).
± gives the uncertainty stated by the source.

Experiment: abundance fitness (aPCA) (normalised: wild type 0, dead -1); higher = more abundant; growth selection in yeast, the domain comes from the species named
Conditions: Homo sapiens

Substance | abundance fitness
Scaffold attachment factor B1 T26N, Q15424 | -0.936 ± 0.37
Scaffold attachment factor B1 T26P, Q15424 | -0.565 ± 0.16
Scaffold attachment factor B1 T26Q, Q15424 | -1.01 ± 0.34
Scaffold attachment factor B1 T26S, Q15424 | -0.452 ± 0.099
Scaffold attachment factor B1 T26V, Q15424 | -0.417 ± 0.12
Scaffold attachment factor B1 T26W, Q15424 | -0.355 ± 0.075
Scaffold attachment factor B1 T28A, Q15424 | -0.519 ± 0.083
Scaffold attachment factor B1 T28D, Q15424 | -0.257 ± 0.1
Scaffold attachment factor B1 T28E, Q15424 | -0.261 ± 0.08
Scaffold attachment factor B1 T28F, Q15424 | -0.142 ± 0.084
Scaffold attachment factor B1 T28G, Q15424 | -0.337 ± 0.055
Scaffold attachment factor B1 T28H, Q15424 | -0.434 ± 0.09
Scaffold attachment factor B1 T28I, Q15424 | -0.038 ± 0.065
Scaffold attachment factor B1 T28L, Q15424 | -0.261 ± 0.07
Scaffold attachment factor B1 T28M, Q15424 | -0.234 ± 0.083
Scaffold attachment factor B1 T28N, Q15424 | -0.196 ± 0.099
Scaffold attachment factor B1 T28P, Q15424 | -0.348 ± 0.07
Scaffold attachment factor B1 T28Q, Q15424 | -0.485 ± 0.073
Scaffold attachment factor B1 T28R, Q15424 | -0.301 ± 0.055
Scaffold attachment factor B1 T28S, Q15424 | -0.183 ± 0.055
Scaffold attachment factor B1 T28V, Q15424 | -0.229 ± 0.056
Scaffold attachment factor B1 T28W, Q15424 | -0.455 ± 0.088

Substance | abundance fitness
Scaffold attachment factor B1 T28Y, Q15424 | -0.073 ± 0.068
Scaffold attachment factor B1 T78A, Q15424 | -0.345 ± 0.09
Scaffold attachment factor B1 T78C, Q15424 | -0.267 ± 0.079
Scaffold attachment factor B1 T78D, Q15424 | -0.271 ± 0.086
Scaffold attachment factor B1 T78F, Q15424 | -0.323 ± 0.1
Scaffold attachment factor B1 T78H, Q15424 | -0.427 ± 0.096
Scaffold attachment factor B1 T78I, Q15424 | -0.17 ± 0.069
Scaffold attachment factor B1 T78K, Q15424 | -0.131 ± 0.076
Scaffold attachment factor B1 T78L, Q15424 | -0.091 ± 0.057
Scaffold attachment factor B1 T78M, Q15424 | -0.356 ± 0.086
Scaffold attachment factor B1 T78N, Q15424 | -0.182 ± 0.11
Scaffold attachment factor B1 T78P, Q15424 | -0.21 ± 0.071
Scaffold attachment factor B1 T78Q, Q15424 | -0.173 ± 0.074
Scaffold attachment factor B1 T78R, Q15424 | -0.123 ± 0.055
Scaffold attachment factor B1 T78V, Q15424 | -0.133 ± 0.07
Scaffold attachment factor B1 T78W, Q15424 | -0.279 ± 0.065
Scaffold attachment factor B1 T78Y, Q15424 | -0.173 ± 0.075
Scaffold attachment factor B1 V36C, Q15424 | -0.281 ± 0.072
Scaffold attachment factor B1 V36D, Q15424 | -0.125 ± 0.068
Scaffold attachment factor B1 V36E, Q15424 | -0.381 ± 0.078
Scaffold attachment factor B1 V36F, Q15424 | -0.279 ± 0.084
Scaffold attachment factor B1 V36G, Q15424 | -0.348 ± 0.057

Substance | abundance fitness
Scaffold attachment factor B1 V36H, Q15424 | -0.409 ± 0.098
Scaffold attachment factor B1 V36K, Q15424 | -0.19 ± 0.078
Scaffold attachment factor B1 V36L, Q15424 | -0.063 ± 0.053
Scaffold attachment factor B1 V36M, Q15424 | -0.031 ± 0.065
Scaffold attachment factor B1 V36N, Q15424 | -0.275 ± 0.064
Scaffold attachment factor B1 V36P, Q15424 | -0.281 ± 0.087
Scaffold attachment factor B1 V36Q, Q15424 | -0.417 ± 0.085
Scaffold attachment factor B1 V36R, Q15424 | -0.258 ± 0.052
Scaffold attachment factor B1 V36T, Q15424 | -0.134 ± 0.082
Scaffold attachment factor B1 V36W, Q15424 | -0.37 ± 0.07
Scaffold attachment factor B1 V36Y, Q15424 | -0.366 ± 0.072
Scaffold attachment factor B1 V48C, Q15424 | -0.133 ± 0.07
Scaffold attachment factor B1 V48D, Q15424 | -0.768 ± 0.11
Scaffold attachment factor B1 V48E, Q15424 | -0.231 ± 0.075
Scaffold attachment factor B1 V48F, Q15424 | -0.157 ± 0.085
Scaffold attachment factor B1 V48G, Q15424 | -0.195 ± 0.057
Scaffold attachment factor B1 V48H, Q15424 | -0.125 ± 0.08
Scaffold attachment factor B1 V48K, Q15424 | -0.118 ± 0.095
Scaffold attachment factor B1 V48L, Q15424 | -0.056 ± 0.065
Scaffold attachment factor B1 V48M, Q15424 | -0.083 ± 0.082
Scaffold attachment factor B1 V48N, Q15424 | -0.362 ± 0.11
Scaffold attachment factor B1 V48P, Q15424 | -0.691 ± 0.091

Substance | abundance fitness
Scaffold attachment factor B1 V48Q, Q15424 | -0.388 ± 0.096
Scaffold attachment factor B1 V48R, Q15424 | -0.078 ± 0.057
Scaffold attachment factor B1 V48S, Q15424 | -0.255 ± 0.059
Scaffold attachment factor B1 V48T, Q15424 | -0.254 ± 0.083
Scaffold attachment factor B1 V48W, Q15424 | -0.281 ± 0.062
Scaffold attachment factor B1 V56A, Q15424 | -0.101 ± 0.059
Scaffold attachment factor B1 V56C, Q15424 | -0.177 ± 0.095
Scaffold attachment factor B1 V56E, Q15424 | -0.15 ± 0.078
Scaffold attachment factor B1 V56F, Q15424 | -0.414 ± 0.072
Scaffold attachment factor B1 V56G, Q15424 | -0.305 ± 0.063
Scaffold attachment factor B1 V56H, Q15424 | -0.226 ± 0.076
Scaffold attachment factor B1 V56I, Q15424 | -0.126 ± 0.067
Scaffold attachment factor B1 V56K, Q15424 | -0.197 ± 0.064
Scaffold attachment factor B1 V56M, Q15424 | -0.16 ± 0.07
Scaffold attachment factor B1 V56N, Q15424 | -0.169 ± 0.064
Scaffold attachment factor B1 V56Q, Q15424 | -0.249 ± 0.083
Scaffold attachment factor B1 V56R, Q15424 | -0.121 ± 0.054
Scaffold attachment factor B1 V56S, Q15424 | -0.129 ± 0.049
Scaffold attachment factor B1 V56T, Q15424 | -0.202 ± 0.069
Scaffold attachment factor B1 V56W, Q15424 | -0.476 ± 0.052
Scaffold attachment factor B1 V56Y, Q15424 | -0.345 ± 0.07
